Legend:
[1] = Isoelectric point by two-dimensional electrophoresis; assay type: physicochemical
Description: The analyses were performed using an Autoflex III MALDI-TOF-TOF unit with smartbeam laser (Bruker Daltonics). The samples were evaluated in positive mode. The method was calibrated using BSA with standard, thereby covering a range of 15,000 to 70,000 Da. In order to determine the isoelectric point of the UPO variants, 8 μg of pure enzyme were subjected to two-dimensional electrophoresis. These experiments were carried out at the Proteomic and Genomic Service of the Biological Research Centre (CIB-CSIC, Spain).

[2] = Optimum pH for ABTS; assay type: biochemical
[3] = Optimum pH for DMP; assay type: biochemical
[4] = Naphthalene transformation reaction analysed by HPLC-PDA; assay type: biochemical
Description: A) Products formed after 15 minutes of reaction stopped with 20 μL of HCl 37% (PaDa-I, black bars; JaWa, grey bars). […] C) and D) Monitoring of the reaction for 270 minutes (without adding HCl) for the PaDa-I (C) and JaWa (D) mutants.
The reactions were analysed by means of chromatography in reverse phase (HPLC). The equipment is composed by a tertiary pump (Varian-Agilent Technologies, USA) coupled to an autosampler (Merck Millipore, MA, USA); an ACE C18 PFP column was used for separation (pentafluorophenyl, 15 cm×4.6 cm) at 45° C. and detection was performed using a photodiode detector (PDA) (Varian-Agilent Technologies, USA). The mobile phase selected was 70% methanol and 30% ddH2O (in both cases with 0.1% of acetic acid) at a flow rate of 0.8 mL/min. The reaction was quantified at 268 nm (based on standard HPLCs). […] For long reaction times, the conditions used were those described earlier but without stopping the reaction with HCl. A sample of 10 μL was injected and analysed at different reaction times (from 1 to 270 minutes).

[5] = Conversion of 1-naphthol into 1,4-naphthoquinone, HPLC; assay type: biochemical; details: versus PaDa-I
Description: Each reaction was performed in triplicate and were stopped with HCl (pH<1) at different times (between 60 and 600 s). Inset: polymeric colorimetric products derived from 1.4-naphthoquinone, 1: PaDa-I and 2: JaWa.
This effect can also be observed at first glance, since the polymeric products produced in the reaction with the PaDa-I variants (SEQ ID NO: 18) (due to non-enzymatic quinone regrouping processes) are coloured (FIG. 4). There are hypotheses in literature on the possibility that UPO is similar to CPO in the existence of different sites with peroxidase activity in its structure. To suppress these alternative peroxidation pathways, the structure of the AaeUPO1 crystal was closely examined and a variant was built by mean of directed mutagenesis in Trp24 (FIG. 5A), a highly oxidable residue, found on the protein surface, using the PaDa-I (SEQ ID NO: 18) and JaWa (SEQ ID NO: 24) variants as templates, as described in the section on materials and methods.

[6] = Dual colorimetric HTS, naphthalene-Fast Red (peroxygenase activity on microplate); assay type: biochemical; details: parental PaDa-I; S. cerevisiae microcultures
Description: (§1) The mother plates were centrifuged (Eppendorf 5810R centrifuge, Germany) for 10 minutes at 3,500 RPM and 4° C. 20 μL of supernatant were transferred from these mother plates to two replica daughter plates with the help of a Freedom EVO liquid handling robot (Tecan, Switzerland).
(§2) The plates were briefly agitated and initial absorbance was measured at 469 nm and 510 nm, respectively, using a plate reader for such purpose ([…]ax Plus 384, Molecular Devices, USA). […] The plates were kept at room temperature until they turned orange (DMP) or red (naphthol-Fast Red), at which time the absorbance was newly measured. The values were normalised against the parental of each plate. In order to rule out false positives, two re-screenings were carried out, in addition to a third re-screening wherein kinetic stability was determined (T50) (P. Molina-Espeja, et al. Appl. Environ. Microbiol. 2014. 80, 3496-3507).

[7] = Dual colorimetric HTS, DMP (peroxidase activity on microplate); assay type: biochemical; details: parental PaDa-I; S. cerevisiae microcultures
Description: as §1, §2

[8] = 4-AAP assay with propranolol in the presence of ascorbic acid (peroxygenase activity); assay type: biochemical; details: 0.2 μM pure variant, 5 mM propranolol, 2 mM H2O2, with and without 4 mM ascorbic acid
Description: FIG. 9 Assay of 4-AAP (4-aminoantipyrine) with different pure UPO variants (AaeUPO1, PaDa-1 and JaWa). […] Each reaction was performed in triplicate.
The mother plates were centrifuged (Eppendorf 5810R centrifuge, Germany) for 10 minutes at 3,500 RPM and 4° C. 20 μL of supernatant of these mother plates were transferred to two replica daughter plates with the help of a Freedom EVO liquid-handling robot (Tecan, Switzerland).
Without ascorbic, the plates were incubated for 30 minutes and with ascorbic for 60 minutes. […] The plates were briefly agitated and absorbance measured at 530 nm, using a plate reader for such purpose ([…]ax Plus 384, Molecular Devices, USA). The values were normalised against the parental of each plate. To rule out false positives, re-screenings were carried out, in addition to a third re-screening wherein kinetic stability was determined (T50) (P. Molina-Espeja, et al. Appl. Environ. Microbiol. 2014. 80, 3496-3507).

[9] = Total turnover number (TTN) for synthesis of 5′-hydroxypropranolol from propranolol; assay type: biochemical; details: 0.03 μM enzyme, propranolol, 2 mM H2O2 added every 10 minutes
Description: FIG. 15 Calculation of the total turnover number (TTN) of AaeUPO and SoLo.
The reactions were analysed by means of chromatography in reverse phase (HPLC). The equipment was composed of a tertiary pump (Varian-Agilent Technologies, USA) coupled to an autosampler (Merck Millipore, MA, USA); for the separation, a Zorbax Eclipse plus C18 column (15 cm×4.6 cm) at 40° C. was used and the detection was performed using a photodiode detector (PDA) (Varian, Agilent Technologies, USA). The mobile phase selected was a gradient from 10% methanol and 90% ddH2O (in both cases with 0.1% of acetic acid) up to 90% methanol and 10% ddH2O at a flow rate of 0.8 mL/min. The reaction was quantified at 280 nm (based on HPLC standards). […] The standard deviations were less than 5% in all cases.

[10] = 15 minutes of reaction stopped with HCl
[11] = 15 minutes of reaction stopped with HCl, 6.6 nM enzyme, 1 mM naphthalene, 1 mM H2O2

B1: JaWa: PaDa-I variant with added mutations G241D and R257K, SEQ ID NO: 24 (protein)
chain: MKYFPLFPTLVYAVGVVAFPDYASLAGLSQQELDAIIPTLEAREPGLPPGPLENSSAKLVNDEAHPWKPLRPGDIRGPCPGLNTLASHGYLPRNGVATPAQIINAVQEGFNFDNQAAIFATYAAHLVDGNLITDLLSIGRKTRLTGPDPPPPASVGGLNEHGTFEGDASMTRGDAFFGNNHDFNETLFEQLVDYSNRFGGGKYNLTVAGELRFKRIQDSIATNPNFSFVDFRFFTAYGETTFPANLFVDGRRDDGQLDMDAARSFFQFSRMPDDFFRAPSPRSDTGVEVVVQAHPMQPGKNVGKINSYTVDPTSSDFSTPCLMYEKFVNITVKSLYPNPTVQLRKALNTNLDFLFQGVAAGCTQVFPYGRD
- pI [1]: 5.3
- Optimum pH for ABTS [2]: 4.0
- Optimum pH for DMP [3]: 6.0
- 1,4-naphthoquinone (oxidation product) detected [4, 10]: without detectable traces of 1,4-naphthoquinone
- increase in the production of 1-naphthol, more than PaDa-I [4, 10]: 156%
- regioselectivity, 1-naphthol [4, 11]: 92%
- regioselectivity, 2-naphthol [4, 11]: 8%
- time at which formation of the epoxide intermediary reached its maximum ([4]; 270 minute reaction at pH 7.0): ~40 min
- production of 1-naphthol ([4]; 270 minutes at pH 7.0 without stopping the reaction): 0.32 mM
- total turnover numbers (TTN), 1-naphthol ([4]; calculated using the production value of 1-naphthol after 270 minutes): ~50,000 μmoles of product/μmoles of en
- regioselectivity against 1-naphthol ([4]; long reaction times, 270 minutes at pH 7.0 without stopping the reaction): 97%
- reduction in the ratio 1,4-naphthoquinone:1-naphthol [5]: ~1.5 fold
- peroxygenase activity on microplate relative to parental [6]: doubled that of its parental
- peroxidase activity on microplate relative to parental [7]: reduced to half
- activity against propranolol in 4-AAP assay among pure UPO variants [8]: greatest activity against propranolol
- TTNs, With ascorbic acid ([9]; 4 mM ascorbic acid): 48,000
- TTNs, Without ascorbic acid ([9]; absence of ascorbic acid): 15,000
